The results in this text go back to patent publication US20260209316A1 (US Dept. of Health and Human Services, published 2026).

Where a chain is given by its changes, count along the chain named. Where two headings read alike, the source gives them in different places.

Experiment [1] deals with T1, mucin domain-deleted Zaire GP (GPdMuc) (Ebola (Zaire) virus (EBOV), UniProt Q05320 33-632).
T1 construct: also called Zaire GPdMuc; GP(Z)dMuc
The experiment in a line: BLI, Fab, pH 7.4.

For experiment [2], the target named is T2, mucin domain-deleted Sudan GP (GPdMuc) (Sudan virus (SUDV), UniProt Q7T9D9 33-632).
T2 construct: also called Sudan GPdMuc; GP(S)dMuc
As to the kind of experiment: BLI, Fab, pH 7.4. (In general: In BLI a coated tip is dipped into the sample, and binding shifts an interference pattern.)

For experiment [3], the target named is T2, mucin domain-deleted Sudan GP (GPdMuc). The experiment in a line: BLI, Fab, pH 5.3.
The target is the same in experiment [4]. As to the kind of experiment: BLI competition on Sudan GPdMuc (lower table); competitor 15H10.
Experiment [5] shares this target. The experiment in a line: BLI competition on Sudan GPdMuc (lower table); competitor mAb166.
Experiment [6] shares this target. The experiment in a line: BLI competition on Sudan GPdMuc (lower table); competitor 16F6.
Experiment [7] shares this target. The experiment in a line: ELISA on coated GP. In general terms: In an ELISA, binding on a coated surface is turned into a signal by an enzyme label.
Experiment [8] shares this target. The experiment in a line: BLI competition on Sudan GPdMuc (lower table); competitor 316L.
Experiment [9] has the same target. As to the kind of experiment: BLI competition on Sudan GPdMuc (upper table); competitor 16F6.
The target is the same in experiment [10]. The experiment in a line: ELISA on coated GP. This is another data set of the same source.
Experiment [11] shares this target. As to the kind of experiment: BLI competition on Sudan GPdMuc (upper table); competitor mAb166.
Experiment [12] shares this target. The experiment in a line: BLI competition on Sudan GPdMuc (upper table); competitor 15H10.
The target is the same in experiment [13]. The experiment in a line: BLI competition on Sudan GPdMuc (upper table); competitor 316L.
Experiment [14] deals with T1, mucin domain-deleted Zaire GP (GPdMuc). The experiment in a line: ELISA on coated GP.
The target in experiment [15] is T2, mucin domain-deleted Sudan GP (GPdMuc). The experiment in a line: ELISA on coated GP. The source holds these as a separate data set.

B1: Fab generated from 316L (Fab, V domains shown)
VH: EERLVESGGGLVQPGGSLRLSCAASGFTFGDYAMHWVRQVPGKSLEWLSGISWSGYTTYSADSVKGRFTISRDNAKNSLYLQMNRLRPEDTGLYYCVTLIGAIGIKDSLDVWGRGVLVTVSS
VL: QSVLTQPPSVSGAPGQRVTVSCSGSSSNIGAGNYVQWYQQLPGTAPKVLIYQTEKRPSGTSDRFSGSKSDTSASLTINGLQSEDEADYYCQVYDSNLNGWVFGGGTRLTVL
notes: also called 316L Fab
Usually Kd stands for the concentration at which binding is half-saturated. In general, koff refers to a measure of how fast the partners let go of each other. As a reminder, the kon is the rate constant with which the complex forms. Low values mean slow association, high ones fast association. With B1, the results for the Kd in experiment [1], in experiment [2] and in experiment [3] were 13.3 nM, 0.372 nM and 0.46 nM, respectively. Besides, the koff came out at 0.0015 s⁻¹ in experiment [1], 5.38e-05 s⁻¹ in experiment [2] and 5.26e-05 s⁻¹ in experiment [3]. Besides, the kon in experiment [1] is 115000 M⁻¹ s⁻¹; in experiment [2] it was 145000 M⁻¹ s⁻¹; in experiment [3] it was 112000 M⁻¹ s⁻¹.

B2: Fab generated from 380L (Fab, V domains shown)
VH: EVQLVESGGGLVQPGGSLTLSCAASGFTFGDYVMHWVRQVPGRGLEWLSAVSWSGYTTYSADSVKGRFTISRDNAKNSLYLQMSRLGTADTGLYYCVTLIGAIGIRDSFDAWGRGVLVTVSS
VL: B1 VL with V10M, S23T, E54D, T60I, D70G, N78S, N96S
notes: also called 380L Fab
In experiment [1], B2 showed a Kd of 6.64 nM, a koff of 0.000778 s⁻¹ and a kon of 118000 M⁻¹ s⁻¹. Further, in [2], binding was put at a Kd of 0.567 nM, the koff was 9.54e-05 s⁻¹ and the kon came out at 168000 M⁻¹ s⁻¹. In [3], the affinity, expressed as Kd, was 0.64 nM; the koff is 0.000109 s⁻¹; the kon was determined as 172000 M⁻¹ s⁻¹.

B3: antibody 294S (antibody, V domains shown)
VH: QVQLQESGPGLVKPSQTLSLTCTVSGGSISSGGYHWSWIRQHPGKGLEWIGNIYYNGRTYYNPSLKSRVTISVDTSENEFSLKLSSVTAADTAVYYCARDRRRPRIGHDYGMDVWGQGTKVIVSS
VL: DIQMTQSPSSLSASVGDRVTISCRASQSISNFLNWYQQKPGQAPKLLIYTASNLQSGVPSRFSGSGSGTDFTLTISSLQPEDFATYYCQQIYNTGMYSFGQGTKLEIKR
Usually EC50 stands for the concentration at which the effect is half-maximal. In the case of B3, the “% inhibition of binding” value in [4] is 15.7%; in experiment [5], 9.71%; in [6], 13.3%; in experiment [8], 8.76%. In experiment [7], this molecule had an EC50 of 0.0266 µg/mL.

B4: antibody 203S (antibody, V domains shown)
VH: QVQLVQSGAEVKKPGSSVKVSCKASGGTFSSYAISWVRQAPGQGLEWLGRILPALGLANYAQKYQDRVKITADKSTSTAYMELSRLGSEDTAVYYCARDRWVGAARRGQYFDYWGQGTQVTVSS
VL: DIQMTQSPATLSASVGDRVTITCRASQSIGTWLAWYQQKPGKAPKLLIYDASSLESGVPPRFSGSGSETEFTLTISSLQPDDFATYYCHQYKSYSYTFGQGTKLEIK
B4: the “% inhibition of binding” value is 10.8% in experiment [9], 87.5% in [11], 13.4% in experiment [12] and 10.3% in [13]. Further, the EC50 in experiment [10] turned out to be 0.57 µg/mL.

B5: antibody 503S (antibody, V domains shown)
VH: QVQLVQSGAEVKKPGASVRVSCKASGYTFTSYYMHWVRQAPGQGLEWMGQINPSGGTTRYERKFQGRITVTRDTSTSTVYLELSSLRSEDTASYFCACLRDKVTYYDLWSGVDSVWGQGTLVTVSS
VL: DIQMTQSPSSLSASVGDRVTITCRASQDISTWLAWYQQKPEKAPKSLIYAASTLETGVPSRFSGSGSGTDFTLTISSLQPEDFATYYCEQYNGFPRTFGQGTKLDIK
With B5, the “% inhibition of binding” value in experiment [4] was determined as 27.8%; in experiment [5], 20.7%; in experiment [6], 24.9%; in experiment [8], 23.3%. The EC50 in experiment [7] worked out at 0.499 µg/mL.

B6: antibody 315S (antibody, V domains shown)
VH: EVQLVESGGGVVQPGRSLRLSCAASGFTFKTYTMHWVRQAPGKGLEWVAVITDDGVNKKYADSVKGRFTISRDNSKNTLYLQMNSLRLEDTAVYYCARSVVVLAAYPLDYWGQGTMVTVSS
VL: DIQMTQSPSSLSASVGDRVTITCRASQTISTYLHWYQQRPGKAPKLLIYAASSLQSGVPSRVSGSGSGTDFTLTITSLQPEDFATYYCLQTYSLPLTFGGGTNVEIK
With B6, the “% inhibition of binding” value was 17.9% in experiment [9], -2.64% in [11], 6.61% in experiment [12] and 0.7% in experiment [13]. Besides, in experiment [10], the EC50 came to 0.01 µg/mL.

B7: antibody 233S (antibody, V domains shown)
VH: EVQLVESGGGLGQPGGSLRLSCAASGFKFKIFGMNWVRQAPGKGLEWVSYISSRSSIIYYADSVKGRFTISRDDATNSLFLQMNSLRDEDTAMYYCVRDYNLIDFVWGSLFDYWGQGILVTVSS
VL: AIRMTQSPSSLSASTGDSVTITCRASQNIASYLAWYQQIPGKAPKLLIYVASTLQSGVPSRFSGSGSGTDFTLTISSLQSEDFATYYCQQYYRYPPTFGQGTKVEIK
In the case of B7, the “% inhibition of binding” value was 29.6% in [4], 14.4% in experiment [5], 22.9% in experiment [6] and 12.5% in experiment [8]. Also, a half-maximal response in [7] (EC50) required 0.195 µg/mL.

B8: antibody 338S (antibody, V domains shown)
VH: EVQLVESGGGVVQPGRSLRLSCAASGFTFSQYGMHWVRQAPGKGLECVAVIWFDGSKKYYGDSVKGRFTISRDNSKNTLYLQMNSLRAEDTAVYFCARESLYYYDSGGHYYERGRIDYWGQGTLVTVSS
VL: DIQMTQSPSSLSASVGDRVTITCRASQDISNFLAWFQQKPGKAPKSLIYAASSLLSGVPSKFSGSGSGTDFTLTISSLQPEDFATYYCQQYNSYPPTFGQGTKLEIK
With B8, the “% inhibition of binding” value in experiment [9] was 3.74%; in experiment [11] it was -6.27%; in experiment [12], 4.35%; in experiment [13], 0.2%. The same molecule displayed an EC50 in [10] of 0.02 µg/mL.

B9: antibody 241S (antibody, V domains shown)
VH: QVQLVQSGSELKKPGASVKVSCKASGYTFTSYTVNWVRQAPGQGLEWMGWINTNTGNPTYAQGFTGRFVFSSDTSVSTAYLQISDLKAEDTAMYYCARHVAYDLWSGHTVTFDHWGQGTLVTVSS
VL: QSALTQPPSASGSPGQSVTISCTGTSSDVGAYNYVSWYQQHPGKAPKLIIYEVTKRPSGVPDRFSGSKSGNTASLTVSGLQAEDEADYYCSSKAGGKTYVFGTGTKVTVL
On to B9, for which the “% inhibition of binding” value is 38.3% in experiment [4], 10.1% in experiment [5], 28.2% in experiment [6] and 10.3% in experiment [8]. Moreover, in experiment [7], the EC50 came out at 0.331 µg/mL.

B10: antibody 377S (antibody, V domains shown)
VH: QVQLVQSGAEVKKPGSSVKVSCKASGGTFSNYAINWVRQAPGQGLEWMGRTIPFLGLTNYAENFQARVTITADKSTGTSYMQLSSLRSEDTAVYFCAKAATSGWSPFDNWGQGTLVTVSS
VL: EIVLTQSPGTLSLSPGERATLSCRASQSISSSYFGWYQQKPGQAPRLLIYGASRRAAGIPDRFSCSGSGTDFTLTISRLEPEDFGVYYCQQYGSSPTFGQGTKVEIK
With B10, the “% inhibition of binding” value amounted to 9.63% in experiment [9], 83.8% in [11], 12.1% in [12] and 39.4% in [13]. Moreover, the EC50 in [10] is 0.86 µg/mL.

B11: antibody 528S (antibody, V domains shown)
VH: EVQLAESGGGVVQPGRSLRLSCAASGFTFNSYGMHWVRQAPGKGLEWVAVIWDDGSKKYYADSVKGRFTISRDNSKNTLFLQMNSLRAEDTAVYYCARETIMFTFGEVIVSSRDNYYMDVWGKGTTVTVSS
VL: EIVLTQSPATLSLSPGERATLSCRASQSVSNYLAWYQQKPGQAPRLLIYDASTRAIGIPARFSGVGSGTDFTLTISSLEPEDFAVYYCQQRSNWPPLTFGGGTKVEIK
On to B11, for which the “% inhibition of binding” value is 13.2% in experiment [9], 82% in [11], 14.7% in experiment [12] and 8.13% in [13]. For the same molecule, the EC50 in experiment [10] was found to be 0.03 µg/mL.

B12: antibody 315L (antibody, V domains shown)
VH: QVQLQESGPGLVKPSETLSLTCTVSGGSITGNYWTWVRQPPGKGLQYIGRFDAGGKTYYNPPLKSRVSILGDKSKNQVSLNLTSVTVADTGVYYCAREQWGQLLSGSFDVWGRGVLVTVSS
VL: SYELTQPPSVSVSPGQTARITCSGDALPDYYAHWYQQKSGQAPMLVIYKDTERPSGIPERFSGSSSGTTVSLTISGVQAEDEADYYCQSGDSSGNHWVFGGGTRLTVL
On to B12, for which the EC50 came to 1.5 µg/mL in experiment [14] and 0.12 µg/mL in experiment [15].
